Assay results as given in patent US20220308072A1.

Legend:
[1] = molecular target: Recombinant, his tagged full length human frataxin protein (Abcam ab95502) (human) (UniProt Q16595); test: Simoa sandwich 3-step; capture Ab-3; frataxin 100 pg/mL
[2] = molecular target: Recombinant, his tagged full length human frataxin protein (Abcam ab95502) (human) (UniProt Q16595); test: Simoa sandwich 3-step; capture Ab-3; frataxin 1000 pg/mL
[3] = molecular target: Recombinant, his tagged full length human frataxin protein (Abcam ab95502) (human) (UniProt Q16595); test: Simoa sandwich 3-step; capture Ab-1; frataxin 1000 pg/mL
[4] = molecular target: Recombinant, his tagged full length human frataxin protein (Abcam ab95502) (human) (UniProt Q16595); test: Simoa sandwich 3-step; capture Ab-3
[5] = molecular target: Recombinant, his tagged full length human frataxin protein (Abcam ab95502) (human) (UniProt Q16595); test: Simoa sandwich 3-step; capture Ab-1; frataxin 100 pg/mL
[6] = molecular target: Recombinant, his tagged full length human frataxin protein (Abcam ab95502) (human) (UniProt Q16595); test: Simoa sandwich 3-step; capture Ab-5; frataxin 10000 pg/mL
[7] = molecular target: Recombinant, his tagged full length human frataxin protein (Abcam ab95502) (human) (UniProt Q16595); test: Simoa sandwich 3-step; capture Ab-4
[8] = molecular target: Recombinant, his tagged full length human frataxin protein (Abcam ab95502) (human) (UniProt Q16595); test: Simoa sandwich 3-step; capture Ab-4; frataxin 100 pg/mL
[9] = molecular target: Recombinant, his tagged full length human frataxin protein (Abcam ab95502) (human) (UniProt Q16595); test: Simoa sandwich 3-step; capture Ab-2
[10] = molecular target: Recombinant, his tagged full length human frataxin protein (Abcam ab95502) (human) (UniProt Q16595); test: Simoa sandwich 3-step; capture Ab-5; frataxin 1000 pg/mL
[11] = molecular target: Recombinant, his tagged full length human frataxin protein (Abcam ab95502) (human) (UniProt Q16595); test: Simoa sandwich 3-step; capture Ab-2; frataxin 1000 pg/mL
[12] = molecular target: Recombinant, his tagged full length human frataxin protein (Abcam ab95502) (human) (UniProt Q16595); test: Simoa sandwich 3-step; capture Ab-5; frataxin 100 pg/mL
[13] = molecular target: Recombinant, his tagged full length human frataxin protein (Abcam ab95502) (human) (UniProt Q16595); test: Simoa sandwich 3-step; capture Ab-4; frataxin 1000 pg/mL
[14] = molecular target: Recombinant, his tagged full length human frataxin protein (Abcam ab95502) (human) (UniProt Q16595); test: Simoa sandwich 3-step; capture Ab-5
[15] = molecular target: Recombinant, his tagged full length human frataxin protein (Abcam ab95502) (human) (UniProt Q16595); test: Simoa sandwich 3-step; capture Ab-1; frataxin 10000 pg/mL
[16] = molecular target: Recombinant, his tagged full length human frataxin protein (Abcam ab95502) (human) (UniProt Q16595); test: Simoa sandwich 3-step; capture Ab-2; frataxin 10000 pg/mL
[17] = molecular target: Recombinant, his tagged full length human frataxin protein (Abcam ab95502) (human) (UniProt Q16595); test: Simoa sandwich 3-step; capture Ab-2; frataxin 100 pg/mL
[18] = molecular target: Recombinant, his tagged full length human frataxin protein (Abcam ab95502) (human) (UniProt Q16595); test: Simoa sandwich 3-step; capture Ab-1
[19] = molecular target: Recombinant, his tagged full length human frataxin protein (Abcam ab95502) (human) (UniProt Q16595); test: Simoa sandwich 3-step; capture Ab-1; frataxin 1000 pg/mL; remark: listed apart in the source
[20] = molecular target: Recombinant, his tagged full length human frataxin protein (Abcam ab95502) (human) (UniProt Q16595); test: Simoa sandwich 3-step; capture Ab-2; frataxin 100 pg/mL; remark: listed apart in the source
[21] = molecular target: Recombinant, his tagged full length human frataxin protein (Abcam ab95502) (human) (UniProt Q16595); test: Simoa sandwich 2-step; capture Ab-2; frataxin 100 pg/mL
[22] = molecular target: Recombinant, his tagged full length human frataxin protein (Abcam ab95502) (human) (UniProt Q16595); test: Simoa sandwich 2-step; capture Ab-2
[23] = molecular target: Recombinant, his tagged full length human frataxin protein (Abcam ab95502) (human) (UniProt Q16595); test: Simoa sandwich 2-step; capture Ab-2; frataxin 1000 pg/mL
[24] = molecular target: Recombinant, his tagged full length human frataxin protein (Abcam ab95502) (human) (UniProt Q16595); test: Simoa sandwich 3-step; capture Ab-1; frataxin 100 pg/mL; remark: listed apart in the source
[25] = molecular target: Recombinant, his tagged full length human frataxin protein (Abcam ab95502) (human) (UniProt Q16595); test: Simoa sandwich 3-step; capture Ab-3; frataxin 10000 pg/mL
[26] = molecular target: Recombinant, his tagged full length human frataxin protein (Abcam ab95502) (human) (UniProt Q16595); test: Simoa sandwich 3-step; capture Ab-2; frataxin 10000 pg/mL; remark: listed apart in the source
[27] = molecular target: Recombinant, his tagged full length human frataxin protein (Abcam ab95502) (human) (UniProt Q16595); test: Simoa sandwich 3-step; capture Ab-1; remark: listed apart in the source
[28] = molecular target: Recombinant, his tagged full length human frataxin protein (Abcam ab95502) (human) (UniProt Q16595); test: Simoa sandwich 2-step; capture Ab-2; frataxin 10000 pg/mL
[29] = molecular target: Recombinant, his tagged full length human frataxin protein (Abcam ab95502) (human) (UniProt Q16595); test: Simoa sandwich 3-step; capture Ab-2; frataxin 1000 pg/mL; remark: listed apart in the source
[30] = molecular target: Recombinant, his tagged full length human frataxin protein (Abcam ab95502) (human) (UniProt Q16595); test: Simoa sandwich 2-step; capture Ab-1; frataxin 100 pg/mL
[31] = molecular target: Recombinant, his tagged full length human frataxin protein (Abcam ab95502) (human) (UniProt Q16595); test: Simoa sandwich 2-step; capture Ab-1; frataxin 10000 pg/mL
[32] = molecular target: Recombinant, his tagged full length human frataxin protein (Abcam ab95502) (human) (UniProt Q16595); test: Simoa sandwich 3-step; capture Ab-1; frataxin 10000 pg/mL; remark: listed apart in the source
[33] = molecular target: Recombinant, his tagged full length human frataxin protein (Abcam ab95502) (human) (UniProt Q16595); test: Simoa sandwich 2-step; capture Ab-1
[34] = molecular target: Recombinant, his tagged full length human frataxin protein (Abcam ab95502) (human) (UniProt Q16595); test: Simoa sandwich 3-step; capture Ab-4; frataxin 10000 pg/mL
[35] = molecular target: Recombinant, his tagged full length human frataxin protein (Abcam ab95502) (human) (UniProt Q16595); test: Simoa sandwich 3-step; capture Ab-2; remark: listed apart in the source
[36] = molecular target: Recombinant, his tagged full length human frataxin protein (Abcam ab95502) (human) (UniProt Q16595); test: Simoa sandwich 2-step; capture Ab-1; frataxin 1000 pg/mL

Sequence of UniProt Q16595 (Q16595 42-210): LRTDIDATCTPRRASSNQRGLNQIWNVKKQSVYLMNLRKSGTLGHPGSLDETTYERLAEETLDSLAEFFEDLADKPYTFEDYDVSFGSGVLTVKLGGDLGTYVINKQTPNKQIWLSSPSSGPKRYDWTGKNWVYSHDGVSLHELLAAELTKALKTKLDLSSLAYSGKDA

Ab-1, unconjugated mouse monoclonal to human Frataxin (LSBio LS-C760752) (antibody)
Ave AEB [1]: 1.92 AEB | S/B [1]: 2.05 | Ave AEB [2]: 10.3 AEB | S/B [2]: 11 | Ave AEB [3]: 0.0953 AEB | LOD [4]: 23.8 pg/mL | Ave AEB [5]: 0.007 AEB | Ave AEB [6]: 28.9 AEB | S/B [6]: 324 | LOD [7]: 66 pg/mL | Ave AEB [8]: 4.72 AEB | S/B [8]: 1.37 | LOD [9]: 7.78 pg/mL | Ave AEB [10]: 8.56 AEB | S/B [10]: 95.9 | Ave AEB [11]: 0.0712 AEB | S/B [11]: 46.2 | Ave AEB [12]: 0.834 AEB | S/B [12]: 9.35 | Ave AEB [13]: 12.4 AEB | S/B [13]: 3.63 | LOD [14]: 4.85 pg/mL | Ave AEB [15]: 1.19 AEB | Ave AEB [16]: 1.36 AEB | S/B [16]: 885 | Ave AEB [17]: 0.0069 AEB | S/B [17]: 4.45

Ab-2, unconjugated mouse monoclonal to Human Frataxin FXN (LSBio LS-C755462) (antibody)
Ave AEB [1]: 2.42 AEB | S/B [1]: 2.36 | Ave AEB [2]: 11.6 AEB | S/B [2]: 11.3 | Ave AEB [3]: 0.107 AEB | S/B [3]: 90.8 | LOD [4]: 18 pg/mL | Ave AEB [5]: 0.0088 AEB | S/B [5]: 7.44 | Ave AEB [6]: 29.5 AEB | S/B [6]: 302 | LOD [7]: 89.6 pg/mL | Ave AEB [8]: 4.73 AEB | S/B [8]: 1.29 | LOD [9]: 9.76 pg/mL | Ave AEB [10]: 9.35 AEB | S/B [10]: 95.7 | Ave AEB [11]: 0.101 AEB | S/B [11]: 80.4 | Ave AEB [12]: 0.961 AEB | S/B [12]: 9.84 | Ave AEB [13]: 13.6 AEB | S/B [13]: 3.71 | LOD [14]: 4.43 pg/mL | Ave AEB [15]: 1.05 AEB | S/B [15]: 892 | Ave AEB [16]: 0.83 AEB | S/B [16]: 659 | LOD [18]: 5.71 pg/mL | Ave AEB [17]: 0.0068 AEB | S/B [17]: 5.41

Ab-5, rabbit polyclonal to recombinant full-length Human Frataxin (Abcam ab175402) (antibody)
Ave AEB [19]: 1.31 AEB | S/B [19]: 53.9 | Ave AEB [20]: 0.16 AEB | S/B [20]: 7.69 | Ave AEB [1]: 0.469 AEB | S/B [1]: 1.8 | Ave AEB [21]: 1.49 AEB | S/B [21]: 26.1 | LOD [22]: 1.88 pg/mL | Ave AEB [23]: 13.1 AEB | S/B [23]: 228 | Ave AEB [24]: 0.152 AEB | S/B [24]: 6.28 | Ave AEB [25]: 20.5 AEB | S/B [25]: 78.8 | Ave AEB [26]: 9.03 AEB | S/B [26]: 434 | Ave AEB [2]: 2.64 AEB | S/B [2]: 10.1 | Ave AEB [3]: 0.998 AEB | S/B [3]: 101 | LOD [27]: 5.12 pg/mL | LOD [4]: 33.6 pg/mL | Ave AEB [5]: 0.106 AEB | S/B [5]: 10.8 | Ave AEB [28]: 28.4 AEB | S/B [28]: 497 | Ave AEB [6]: 21.7 AEB | S/B [6]: 220 | Ave AEB [29]: 1.59 AEB | S/B [29]: 76.4 | Ave AEB [30]: 1.61 AEB | S/B [30]: 27.6 | Ave AEB [31]: 29.3 AEB | S/B [31]: 502 | Ave AEB [32]: 8.37 AEB | S/B [32]: 346 | LOD [33]: 1.27 pg/mL | Ave AEB [34]: 23.7 AEB | S/B [34]: 44.1 | LOD [7]: 52.8 pg/mL | Ave AEB [8]: 0.814 AEB | S/B [8]: 1.51 | LOD [9]: 4.62 pg/mL | Ave AEB [10]: 5.53 AEB | S/B [10]: 56.2 | Ave AEB [11]: 1.03 AEB | S/B [11]: 65 | LOD [35]: 4.9 pg/mL | Ave AEB [12]: 0.573 AEB | S/B [12]: 5.82 | Ave AEB [36]: 12.4 AEB | S/B [36]: 212 | Ave AEB [13]: 3.95 AEB | S/B [13]: 7.32 | LOD [14]: 7.44 pg/mL | Ave AEB [15]: 5.93 AEB | S/B [15]: 602 | Ave AEB [16]: 5.41 AEB | S/B [16]: 343 | LOD [18]: 2.95 pg/mL | Ave AEB [17]: 0.115 AEB | S/B [17]: 7.3
